Data on one molecule can be found in PMC3678163.

The assay concerns the target poly-SUMO2 chains (3–8) (UniProt P61956). The experiment in a line: SPR. (In general: In SPR one partner is held on a chip, and binding of the other changes the refractive index at the surface.)

Broadly, the Kd is the concentration at which binding is half-saturated.

Sequence of UniProt P61956 (P61956 whole entry): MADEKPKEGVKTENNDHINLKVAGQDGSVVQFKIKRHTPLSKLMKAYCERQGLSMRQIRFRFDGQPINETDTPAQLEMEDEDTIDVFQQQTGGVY

B1: RNF111(282–411) fragment, wild type (domain or fragment)
chain: SENHQNNPAVPSGSIDEDVVVIEASSTPQVTANEEINVTSTDSEVEIVTVGESYRSRSTLGHSRSHWSQGSSSHASRPQEPRNRSRISTVIQPLRQNAAEVVDLTVDEDEPTVVPTTSARMESQATSASI
B1 had a Kd of 15 µM.
